According to PMC5700975:

B1: GST-Rab5 wild-type [canine] / Myc3-iSH2-p110β (wild type) [bovine | human] (parent)
chain 1: LYEDYTRTSQEIQMKRTAIEAFNETIKIFEEQCQTQERYSKEYIEKFKREGNETEIQRIMHNYEKLKSRISEIVDSRRRLEEDLKKQAAEYREIDKRMNSIKGGGGGGGMCFSFIMPPAMADILDIWAVDSQIASDGSIPVDFLLPTGIYIQLEVPREATISYIKQMLWKQVHNYPMFNLLMDIDSYMFACVNQTAVYEELEDETRRLCDVRPFLPVLKLVTRSCDPGEKLDSKIGVLIGKGLHEFDSLKDPEVNEFRRKMRKFSEEKILSLVGLSWMDWLKQTYPPEHEPSIPENLEDKLYGGKLIVAVHFENCQDVFSFQVSPNMNPIKVNELAIQKRLTIHGKEDEVSPYDYVLQVSGRVEYVFGDHPLIQFQYIRNCVMNRALPHFILVECCKIKKMYEQEMIAIEAAINRNSSNLPLPLPPKKTRIISHVWENNNPFQIVLVKGNKLNTEETVKVHVRAGLFHGTELLCKTIVSSEVSGKNDHIWNEPLEFDINICDLPRMARLCFAVYAVLDKVKTKKSTKTINPSKYQTIRKAGKVHYPVAWVNTMVFDFKGQLRTGDIILHSWSSFPDELEEMLNPMGTVQTNPYTENATALHVKFPENKKQPYYYPPFDKIIEKAAEIASSDSANVSSRGGKKFLPVLKEILDRDPLSQLCENEMDLIWTLRQDCREIFPQSLPKLLLSIKWNKLEDVAQLQALLQIWPKLPPREALELLDFNYPDQYVREYAVGCLRQMSDEELSQYLLQLVQVLKYEPFLDCALSRFLLERALGNRRIGQFLFWHLRSEVHIPAVSVQFGVILEAYCRGSVGHMKVLSKQVEALNKLKTLNSLIKLNAVKLNRAKGKEAMHTCLKQSAYREALSDLQSPLNPCVILSELYVEKCKYMDSKMKPLWLVYNNKVFGEDSVGVIFKNGDDLRQDMLTLQMLRLMDLLWKEAGLDLRMLPYGCLATGDRSGLIEVVSTSETIADIQLNSSNVAAAAAFNKDALLNWLKEYNSGDDLDRAIEEFTLSCAGYCVASYVLGIGDRHSDNIMVKKTGQLFHIDFGHILGNFKSKFGIKRERVPFILTYDFIHVIQQGKTGNTEKFGRFRQCCEDAYLILRRHGNLFITLFALMLTAGLPELTSVKDIQYLKDSLALGKSEEEALKQFKQKFDEALRESWTTKVNWMAHTVRKDYRS
chain 2: ANRGATRPNGPNTGNKICQFKLVLLGESAVGKSSLVLRFVKGQFHEFQESTIGAAFLTQTVCLDDTTVKFEIWDTAGQERYHSLAPMYYRGAQAAIVVYDITNEESFARAKNWVKELQRQASPNIVIALSGNKADLANKRAVDFQEAQSYADDNSLLFMETSAKTSMNVNEIFMAIAKKLPKNEPQNPGANSARGRGVDLTEPTQPTRSQCCSN

Variants of: B1
Assay: GST pull-down (summary table)
Conditions: with Myc3-iSH2-p110β (wild type) [bovine | human]; n=9; parent: 100

percent of parent [% binding]	Variant
< 25	chain 2 H82E
< 25	chain 2 E79R

Same assay, conditions: with Myc3-iSH2-p110β (wild type) [bovine | human]; n=4; parent: 100

percent of parent [% binding]	Variant
< 25	chain 2 R90E
< 25	chain 2 I52A

Same assay, conditions: with Myc3-iSH2-p110β (wild type) [bovine | human]; n=8; parent: 100

percent of parent [% binding]	Variant
< 25	chain 2 R80E

Same assay, conditions: with Myc3-iSH2-p110β (wild type) [bovine | human]; n=7; parent: 100

percent of parent [% binding]	Variant
< 25	chain 2 Q78L
< 25	chain 2 Y88A

Variants of: B1
Assay: GST pull-down, anti-Myc immunoblot quantification
Conditions: with Myc3-iSH2-p110β (wild type) [bovine | human]; GST-Rab5 fusion proteins (10 µg) on glutathione Sepharose beads, GppCp-loaded; Myc-iSH2-p110β from transfected COS-1 lysates; parent: 100; read off a plot

percent of parent [% WT]	Variant
20	chain 2 Q78L

Variants of: B1
Assay: GST pull-down (summary table)
Conditions: with Myc3-iSH2-p110β (wild type) [bovine | human]; n=10; parent: 100

percent of parent [% binding]	Variant
< 25	chain 2 L84A

Same assay, conditions: with Myc3-iSH2-p110β (wild type) [bovine | human]; n=5; parent: 100

percent of parent [% binding]	Variant
< 25	chain 2 M87A
< 25	chain 2 F56A
< 25	chain 2 W73A

Same assay, conditions: with Myc3-iSH2-p110β (wild type) [bovine | human]; n=6; parent: 100

percent of parent [% binding]	Variant
< 25	chain 2 Y81A
